Test results from patent US11760795B2, “Monoclonal antibodies to growth and differentiation factor 15 (GDF-15), and uses thereof for treating cancer cachexia and cancer” (JULIUS-MAXIMILIANS-UNIVERSITÄT WÜRZBURG, priority 2014, dated 2023).

Key:
[1] = biological target: T1, recombinant mature human GDF-15 protein derived from expression in E. coli (Homo sapiens, UniProt Q99988); assay: Surface plasmon resonance binding to recombinant GDF-15 derived from E. coli expression; conditions: SPR
T1 construct: recombinant mature human GDF-15 protein was immobilized on flow cells 1 and 2; made in house; host or cells: E. coli
T1 sequence (Q99988 195-308): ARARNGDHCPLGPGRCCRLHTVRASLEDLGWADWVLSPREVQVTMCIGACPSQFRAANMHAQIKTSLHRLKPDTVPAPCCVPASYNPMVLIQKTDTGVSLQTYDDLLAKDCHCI
Text: For preparing the biosensors recombinant mature human GDF-15 protein was immobilized on flow cells 1 and 2. On one flow cell recombinant GDF-15 derived from Baculvirus-transfected insect cells (HighFive insect cells) and on the other recombinant protein derived from expression in E. coli was used. The GLC sensor chip was activated using Sulfo-NHS (N-Hydroxysulfosuccinimide) and EDC (1-Ethyl-3-[3-dimethylaminopropyl]carbodiimide hydrochloride) (Bio-Rad® ProteOn™ Amine Coupling Kit) according to the manufacturer's recommendation, the sensor surface was subsequently loaded with the proteins up to a density of about 600RU (1Ru=1 pg mm^−2). The non-reacted coupling groups were then quenched by perfusion with 1M ethanolamine pH 8.5 and the biosensor was equilibrated by perfusing the chip with running buffer ([…], 150 mM NaCl, 3.4 mM EDTA, 0.005% Tween® 20, pH 7.4, referred to as HBS150). […] The resulting sensogram was analyzed using the software ProteOn Manager version 3.0. […] For the association rate constant a value of 5.4±0.06×10^5 M^−1s^−1 (kon) and for the dissociation rate constant a value of 4.3±0.03×10^−4 s^−1 (koff) could be determined (values are for the interaction of anti-human GDF-15 mAb-B1-23 with GDF-15 derived from insect cell expression).

[2] = system: 13 mer linear peptides derived from GDF-15; assay: Epitope mapping on peptide array of 13 mer linear peptides derived from GDF-15; assay type: binding, human; conditions: antibody dilution 1:100, overnight at 4° C.
Protocol: Epitope Mapping: Monoclonal mouse antibody GDF-15 against 13 mer linear peptides derived from GDF-15
The protein sequence was translated into 13 mer peptides with a shift of one amino acid. The C- and N-termini were elongated by a neutral GSGS linker to avoid truncated peptides (bold letters).
Primary sample: Monoclonal mouse antibody GDF-15 (1 μg/μl):
Staining in incubation buffer for 16 h at 4° C. at a dilution of 1:100 and slight shaking at 500 rpm
Secondary antibody: Goat anti-mouse IgG (H+L) IRDye680, staining in incubation buffer with a dilution of 1:5000 for 30 min at room temperature (RT)
After pre-swelling for 10 min in standard buffer, the peptide microarray was incubated overnight at 4° C. with monoclonal mouse antibody GDF-15 at a dilution of 1:100. Repeated washing in standard buffer (2×1 min) was followed by incubation for 30 min with the secondary antibody at a dilution of 1:5000 at room temperature. After 2×10 sec. washing in standard buffer and short rinsing with dist. water, the PEPperCHIP® was dried in a stream of air. Read-out was done with Odyssey® Imaging System at a resolution of 21 μm and green/red intensities of 7/7 before and after staining of control peptides by anti-HA and anti-FLAG(M2) antibodies.

[3] = system: GDF-15 mediated downregulation of NKG2D on NK cells; assay: NKG2D surface expression on NK cells after GDF-15 treatment (flow cytometry); assay type: cell-based; conditions: 72 hours incubation
Protocol: FIG. 1: NKG2D Expression on NK Cells after Treatment with or without GDF-15. The cell surface expression of NKG2D was determined on NK cells after treatment with the indicated cytokines in the presence or absence of the anti-GDF-15 antibody mAb B1-23.
a) The NKG2D (Natural Killer Group 2D) receptor, which is expressed on NK cells and CD8+ T cells, is known to play an important role in the immune surveillance against tumors. Transformed as well as viral infected cells express ligands, which bind to the NKG2D receptor, thereby activating the cytotoxic effector functions of the described immune cells. In that way transformed cells can be detected and eliminated by the immune system.
After 72 hours incubation the immune cells were stained with the following FACS-antibodies: anti CD3, anti CD56, anti-NKG2D. Using this antibody combination, the experiment focused on NK cells and their NKG2D surface expression. The low NKG2D level on immune cells led to an impaired tumor/target cell lysis. The GDF-15 mediated downregulation of NKG2D was prevented by mAb B1-23.

hrGDF-15 = biological target: T2, hrGDF-15 (Homo sapiens, UniProt Q99988); assay: Colorimetric ELISA binding to coated hrGDF-15; conditions: serial 1:3 dilution from 333 ng/ml; in comparison to B12
T2 sequence (Q99988 with tags, fused parts or gaps limits assumed): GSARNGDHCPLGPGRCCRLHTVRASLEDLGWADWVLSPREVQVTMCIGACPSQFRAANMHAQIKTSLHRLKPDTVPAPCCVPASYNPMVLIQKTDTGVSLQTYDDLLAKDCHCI
Protocol: Additionally, by using a colorimetric assay, it was confirmed that all anti-GDF-15 antibodies used in the study bound to GDF-15 in a concentration-dependent manner. To determine the binding of B1-23 antibody variants to GDF-15, a […] ELISA experiment was performed. […] Therefore, Maxisorp 96 well plates (Nunc) were coated with hrGDF-15 (25 ng protein per well, 50 μl volume) over night at 4° C. The following day, plates were washed to remove unbound protein (3 times with 150 μl of PBS 0.05% Tween®) and non-specific binding sites were blocked with 150 μl of PBS 1% BSA for 2 hours at room temperature. Again, plates were washed and different variants of B1-23 test antibodies were applied (50 μl volume). To inquire specificity of the antibody binding, endpoint dilution was performed starting from 333 ng/ml and 1:3 serial dilution. As background control, PBS 1% BSA was applied. Following binding for 1 hour at room temperature, wells were washed as described above. As secondary antibody HRP conjugated Anti-human IgG (Life technologies, 1:5000) was applied for 1 hour at room temperature. Wells were washed as described above to remove unbound secondary antibody. […] For analysis, optical density at 450 nm was quantified using the ELISA reader (Tecan Sunrise) and the corresponding Magellan software.

B1: mAb-B1-23: murine IgG2a (kappa) monoclonal anti-human GDF-15 antibody produced by hybridoma cell line B1-23, DSM ACC3142 (antibody, V domains shown)
VH: QVKLQQSGPGILQSSQTLSLTCSFSGFSLSTSGMGVSWIRQPSGKGLEWLAHIYWDDDKRYNPTLKSRLTISKDPSRNQVFLKITSVDTADTATYYCARSSYGAMDYWGQGTSVTVSS
VL: DIVLTQSPKFMSTSVGDRVSVTCKASQNVGTNVAWFLQKPGQSPKALIYSASYRYSGVPDRFTGSGSGTDFTLTISNVQSEDLAEYFCQQYNNFPYTFGGGTKLEIKRTVA
[1]
  deviation of rate constants, GDF-15 from insect cells vs E. coli: about 45%
[2]
  interaction with linear 13 mer peptides derived from GDF-15: none of the linear 13 mer peptides derived from GDF-15 interacted
[3]
  GDF-15 mediated downregulation of NKG2D: prevented
hrGDF-15
  binding to GDF-15 in ELISA: clearly concentration-dependent binding
